Source: patent US10562935B2, “Stapled peptides and uses thereof” (London Health Sciences Centre Research Inc., priority 2015, dated 2020)
Bridges are numbered along the chain shown (N, C = ends).

What was measured:
[1] = Circular dichroism (CD) spectroscopy of HABD2 peptides in Milli-Q water (Example 1); format: physicochemical; conditions: for [θ]222/[θ]208 ratio of ellipticities / fH fraction helicity / Molar ellipticity [θ]192 / Molar ellipticity [θ]208 / Molar ellipticity [θ]222: 0.5 mM in Milli-Q water; for fH fraction helicity: equations 1-3; for α-helical character by CD (in words): Milli-Q water; for Molar ellipticity [θ]192: λ = 192 nm; for Molar ellipticity [θ]208: λ = 208 nm; for Molar ellipticity [θ]222: λ = 222 nm
Excerpt: In addition, a large mean residue ellipticity indicates greater α-helical character. […] This was predicted to be the case, as there is a lack of contributing residues that might form a hydrophobic core, thereby helping to stabilize the secondary structure of the linear peptide. For this reason, bridges were introduced into the peptides. […] The differences in α-helicity induced by the bridges placed at different points within each peptide may be due to the differences in their primary sequences. Specifically, two amino acids (at the i and i+4 position) have to be replaced in order to form the lactam bridge. In compound 133, leucine was replaced at both the i and i+4 position; while in compound 136, glutamine was replaced at the i position and aspartic acid was replaced at i+4. Leucine and glutamine are proposed to be helix-stabilizing residues.
A larger portion of the RHAMM protein was used as the reference for α-helical character of the truncated peptides. 7 kDa RHAMM (SEQ ID NO: 1) is a mini protein that is composed of 62 amino acids, which was derived from the C-terminus of the full-length RHAMM sequence. It contains both HABDs, and is predicted to have almost complete α-helix shape, similar to that of native full-length RHAMM.
A peptide's α-helicity can be quantified using equations 1-3: fH=[([θ]obs222−[θ]c)/([θ]max222−[θ]c)] (Equation 1) [θ]c=2220+53T (Equation 2) [θ]max222=(−44000+250T)(1−k/N) (Equation 3) where fH is the ratio of the average number of helical hydrogen bonds divided by the total number of hydrogen bonds that can be found in a peptide, T is the temperature in degrees Celsius, N is the number of residues in the peptide and k is a constant of ellipticity when 100% of the structure is α-helical (3 for carboxyamidated peptides).
Milli-Q water was chosen as the solvent in which all peptides would be dissolved for CD spectroscopy, as it is a UV invisible solvent, which is a requirement of the analytical technique, and it represents RHAMM's natural environment in the body. Luo and Baldwin [18] stated that when peptides are taken out of their native protein sequence, they usually show little to no helical formation in water alone. For this reason, TFE/H2O solutions are commonly used in studies to observe the α-helix characteristics, and may improve the helical nature of the peptides observed here. However, a helix-stabilizing solvent, such as TFE, would not be as contextually relevant, as there are no solvent stabilizing effects in the body. Thus use of TFE would tend to produce skewed results and not be representative of the peptide's natural behavior.

[2] = system: RHAMM-overexpressing (LR21) cells; test: Cell migration assay (Boyden chamber, Chemicon ECM510); format: cell-based; conditions: 10 ng/mL peptide; 20 hours; compared to 30% serum control
Procedure: Compounds 132, 133, 150-152, 156-161, 265-269, 275, 277, and 278 were evaluated for their ability to inhibit cell migration. Cell migration assays were performed using Chemicon Assay Kits (ECM510 (Migration); Billerica, Mass., USA) according to the manufacturer's protocol. Briefly, sub-confluent cultures of RHAMM-overexpressing (LR21) cells were serum starved overnight. 7.5×10^4 cells were then plated in the upper chamber of a Boyden chamber. either in the presence or absence of 10 ng/mL of peptide. 30% fetal bovine serum in DMEM was used as the chemo-attractant in the lower chamber. The number of cells that had crossed the membrane after 20 hours was assessed using the CYQUANT GR Dye and lysis buffer solution provided in the kit. Fluorescence was measured with a fluorescent plate reader using a 480/520 nm filter set.
Values are the mean and SDM of n=3 replicates. *p<0.05, **p<0.01. All statistics compare to 30% serum control. In FIGS. 41-43, where bars are labeled with two compound numbers (“133/150” and “135/152”) this means that the data were pooled for the indicated compounds, i.e., for the non-acetylated and acetylated versions of the indicated peptides.

[3] = system: RHAMM-overexpressing (LR21) cells; test: Cell invasion assay (Boyden chamber with MATRIGEL, Chemicon ECM555); format: cell-based; conditions: 10 ng/mL peptide; 20 hours; compared to 30% serum control
Procedure: Compounds 132, 133, 135, 150-153, 156, 265-269, and 275-278 were evaluated for their ability to inhibit cellular invasion. Invasion assays were performed using Chemicon Assay Kits ECM555 (Invasion); Billerica, Mass., USA) according to the manufacturer's protocol. Invasion assays are performed in an identical manner as the migration assays described above in Example 5, except that cells are required to invade through a layer of extracellular matrix (MATRIGEL) coating the filter that separates the upper and lower Boyden chambers. Briefly, sub-confluent cultures of RHAMM-overexpressing (LR21) cells were serum starved overnight before plating 7.5×10^4 cells in the upper chamber of a Boyden chamber either in the presence or absence of 10 ng/mL of peptide. 30% fetal bovine serum in DMEM was used as the chemo-attractant in the lower chamber. The number of cells that had crossed the membrane after 20 hours was assessed using the CYQUANT® GR Dye and lysis buffer solution provided in the kit. Fluorescence was measured with a fluorescent plate reader using 480/520 nm filter set.
Values the mean and SDM of n=3 replicates. *p<0.05, **p<0.01, ***p<0.001 All statistics compared to 30% serum control. In FIG. 49, where bars are labeled with two compound numbers (“152/135”) this means that the data were pooled for the indicated compound, i.e., for the non-acetylated and acetylated versions of the indicated peptide.

[4] = system: NF-κB; test: Inflammation assay: NF-κB inducible SEAP reporter in RAW-Blue macrophages stimulated with PAM3CSK4; format: cell-based, murine; conditions: 10 ng/mL peptide with 200 ng/mL PAM3CSK4; 18 hours; compared to +PAM3
Procedure: Compounds 132, 133, 135, 150, 152, 157-161, 265-269, 275, 277, and 278 were evaluated for their ability to inhibit inflammation. To determine the effect of the peptides on inflammation, commercially available murine RAW 264.7 macrophages carrying a secreted embryonic alkaline phosphatase (SEAP) reporter that is inducible by NF-κB (RAW-Blue; InvivoGen, San Diego, Calif., USA) were used. Cells were grown to 80% confluence in DMEM containing 4.5 g/L glucose, 10% heat-inactivated fetal bovine serum, 2 mM L-glutamine, 50 μg/mL penicillin/streptomycin, 100 μg/mL Normocin (InvivoGen) at 37° C. in 5% CO2. For peptide screening experiments, cells were scraped in growth medium, counted, and plated to flat-bottom 96-well plates at a density of 5×10^4 cells/well either in the presence or absence (control) of 200 ng/mL TLR1/TLR2 agonist PAM3CSK4 (InvivoGen). Peptides were added in 6 replicate wells at a dose of 10 ng/mL in the presence of PAM3CSK4. After 18 hours of stimulation, SEAP concentrations (indicating NF-κB activity) were measured in the supernatants collected from the RAW-Blue cells using QUANTI-BLUE reagent (InvivoGen). After 20 minutes of incubation at 37° C., SEAP levels were determined using spectrophotometry at a wavelength of 630 nm.
Values are the mean and SDM of n=3 replicates. *p<0.05 and ***p<0.001 compared to +PAM3. In FIGS. 44 and 45, where bars are labeled with two compound numbers (“133/150” and “135/152”) this means that the data were pooled for the indicated compounds, i.e., for the non-acetylated and acetylated versions of the indicated peptides.

| Substance | [θ]222/[θ]208 ratio of ellipticities [1] | fH fraction helicity [1] | α-helical character by CD (in words) [1] | Molar ellipticity [θ]192 [1] | Molar ellipticity [θ]208 [1] | Molar ellipticity [θ]222 [1] | inhibition of cell migration (in words) [2] | inhibition of cellular invasion (in words) [3] | inhibition of inflammation (SEAP / NF-κB activity, in words) [4] |
| --- | --- | --- | --- | --- | --- | --- | --- | --- | --- |
| H-(cyclo-4,8)-VSK[ERSQK]VKRKQN-NH2 (H-VSKERSQKVKRKQN-NH2; lactam 4-8; SMILES CC(C)[C@H](N)C(=O)N[C@@H](CO)C(=O)N[C@@H](CCCCN)C(=O)N[C@H]1CCC(=O)NCCCC[C@@H](C(=O)N[C@H](C(=O)N[C@@H](CCCCN)C(=O)N[C@@H](CCCNC(=N)N)C(=O)N[C@@H](CCCCN)C(=O)N[C@@H](CCC(N)=O)C(=O)N[C@@H](CC(N)=O)C(N)=O)C(C)C)NC(=O)[C@H](CCC(N)=O)NC(=O)[C@H](CO)NC(=O)[C@H](CCCNC(=N)N)NC1=O) [Compound 133] | 0.45 | 0.17 | did not seem to stabilize | 1733.35 deg cm^2 dmol^−1 residue^−1 | −5010.81 deg cm^2 dmol^−1 residue^−1 | −2260.92 deg cm^2 dmol^−1 residue^−1 | significantly inhibit cell migration | significantly inhibited cellular invasion | – |
| H-(cyclo-6,10)-VSKLR[EQLVK]RKQN-NH2 (H-VSKLREQLVKRKQN-NH2; lactam 6-10; SMILES CC(C)C[C@H](NC(=O)[C@H](CCCCN)NC(=O)[C@H](CO)NC(=O)[C@@H](N)C(C)C)C(=O)N[C@@H](CCCNC(=N)N)C(=O)N[C@H]1CCC(=O)NCCCC[C@@H](C(=O)N[C@@H](CCCNC(=N)N)C(=O)N[C@@H](CCCCN)C(=O)N[C@@H](CCC(N)=O)C(=O)N[C@@H](CC(N)=O)C(N)=O)NC(=O)[C@H](C(C)C)NC(=O)[C@H](CC(C)C)NC(=O)[C@H](CCC(N)=O)NC1=O) [Compound 135] | 0.55 | 0.22 | increase in α-helix structure | 1245.85 deg cm^2 dmol^−1 residue^−1 | −7906.16 deg cm^2 dmol^−1 residue^−1 | −4400.73 deg cm^2 dmol^−1 residue^−1 | significantly inhibit cell migration | significantly inhibited cellular invasion | significantly inhibited inflammation |
